Laboratory results as given in patent US20110275102.
Several values for one entry are separate records, joined by “and”; a condition that tells them apart may be missing. Identical values can stand only once.

Legend:
[1] = tested on: T1, Crosstide GRPRTSSFAEG
T1 sequence: GRPRTSSFAEG

[2] = tested on: T2, RPRTNSF
T2 sequence: RPRTNSF

[3] = tested on: T3, RPRTASF
T3 sequence: RPRTASF

[4] = tested on: T4, RPRASSF
T4 sequence: RPRASSF

[5] = tested on: histone H2B
[6] = tested on: T5, RPRAASF
T5 sequence: RPRAASF

[7] = tested on: T6, RPRTSSK
T6 sequence: RPRTSSK

[8] = tested on: T7, RPRTSSFA
T7 sequence: RPRTSSFA

[9] = tested on: T8, KKRNRTLSVA
T8 sequence: KKRNRTLSVA

[10] = tested on: T9, RPKTSSF
T9 sequence: RPKTSSF

[11] = tested on: myelin basic protein (MBP)
[12] = tested on: T10, RPRTSSV
T10 sequence: RPRTSSV

[13] = tested on: T11, RPRTVSF
T11 sequence: RPRTVSF

[14] = tested on: T12, RPRAGSF
T12 sequence: RPRAGSF

[15] = tested on: T13, KKKNRTLSVA
T13 sequence: KKKNRTLSVA

[16] = tested on: T14, RPRGGSF
T14 sequence: RPRGGSF

[17] = tested on: T15, RPRTSSA
T15 sequence: RPRTSSA

[18] = tested on: T16, KKRNRTLTV
T16 sequence: KKRNRTLTV

[19] = tested on: T17, RPRGSSF
T17 sequence: RPRGSSF

[20] = tested on: T18, RPRTSS
T18 sequence: RPRTSS

[21] = tested on: T19, RPRVSSF
T19 sequence: RPRVSSF

[22] = tested on: T20, RPRTSSL
T20 sequence: RPRTSSL

[23] = tested on: T21, RPRTSSE
T21 sequence: RPRTSSE

[24] = tested on: T22, RPRGASF
T22 sequence: RPRGASF

[25] = tested on: T23, RPRNSSF
T23 sequence: RPRNSSF

[26] = tested on: T24, KPRTSSF
T24 sequence: KPRTSSF

[27] = tested on: T25, KKRNKTLSVA
T25 sequence: KKRNKTLSVA

[28] = tested on: T26, GRPRTSSF
T26 sequence: GRPRTSSF

[29] = tested on: T27, RPRTSSF
T27 sequence: RPRTSSF

[30] = tested on: T28, RPRTSTF
T28 sequence: RPRTSTF

[31] = tested on: T29, RPRTGSF
T29 sequence: RPRTGSF

[32] = tested on: T30, GRARTSSFA
T30 sequence: GRARTSSFA

[33] = tested on: T31, RPRAATF
T31 sequence: RPRAATF

**Q.** What does the source list for “HA-RAC-PKα immunoprecipitated from IGF-1 stimulated 293 cells”?
**A.** Km [1]: 4 µM; V (0.1 mM): relative rate of phosphorylation at 0.1 mM peptide (relative to peptide 1) [1]: 100; Vmax [1]: 250 U/mg; Km [2]: 30 µM; V (0.1 mM): relative rate of phosphorylation at 0.1 mM peptide (relative to peptide 1) [2]: 81; Vmax [2]: 300 U/mg; Km [3]: 20 µM; V (0.1 mM): relative rate of phosphorylation at 0.1 mM peptide (relative to peptide 1) [3]: 83; Vmax [3]: 213 U/mg; Km [4]: 12 µM; V (0.1 mM): relative rate of phosphorylation at 0.1 mM peptide (relative to peptide 1) [4]: 89; Vmax [4]: 230 U/mg; Km [5]: histone H2B with a Km of 5 µM and a Vmax of 68 U/mg; Vmax [5]: histone H2B with a Km of 5 µM and a Vmax of 68 U/mg; Km [6]: 0.025 mM; V (0.1 mM): relative rate of phosphorylation at 0.1 mM peptide (relative to peptide 1) [6]: 77; Vmax [6]: 215 U/mg; Km [7]: 80 µM; V (0.1 mM): relative rate of phosphorylation at 0.1 mM peptide (relative to peptide 1) [7]: 67; Vmax [7]: 308 U/mg; Km [8]: 8 µM; V (0.1 mM): relative rate of phosphorylation at 0.1 mM peptide (relative to peptide 1) [8]: 109; Vmax [8]: 305 U/mg; Km [9]: 0.08 mM; Vmax [9]: 300 U/mg; Km [10]: > 500 µM; V (0.1 mM): relative rate of phosphorylation at 0.1 mM peptide (relative to peptide 1) [10]: 2; Km [11]: MBP with a Km of 5 µM and a Vmax of 25 U/mg; Vmax [11]: MBP with a Km of 5 µM and a Vmax of 25 U/mg; Km [12]: 21 µM; V (0.1 mM): relative rate of phosphorylation at 0.1 mM peptide (relative to peptide 1) [12]: 102; Vmax [12]: 300 U/mg; Km [13]: 30 µM; V (0.1 mM): relative rate of phosphorylation at 0.1 mM peptide (relative to peptide 1) [13]: 89; Vmax [13]: 365 U/mg; Km [14]: 49 µM; V (0.1 mM): relative rate of phosphorylation at 0.1 mM peptide (relative to peptide 1) [14]: 70; Vmax [14]: 114 U/mg; Km [15]: 0.185 mM; Vmax [15]: 270 U/mg; Km [16]: 105 µM; V (0.1 mM): relative rate of phosphorylation at 0.1 mM peptide (relative to peptide 1) [16]: 55; Vmax [16]: 345 U/mg; Km [17]: 250 µM; V (0.1 mM): relative rate of phosphorylation at 0.1 mM peptide (relative to peptide 1) [17]: 30; Vmax [17]: 265 U/mg; Km [18]: 0.388 mM; Vmax [18]: 330 U/mg; Km [19]: 60 µM; V (0.1 mM): relative rate of phosphorylation at 0.1 mM peptide (relative to peptide 1) [19]: 37; Vmax [19]: 163 U/mg; Km [20]: > 500 µM; V (0.1 mM): relative rate of phosphorylation at 0.1 mM peptide (relative to peptide 1) [20]: 2; Km [21]: 25 µM; V (0.1 mM): relative rate of phosphorylation at 0.1 mM peptide (relative to peptide 1) [21]: 77; Vmax [21]: 273 U/mg; Km [22]: 8 µM; V (0.1 mM): relative rate of phosphorylation at 0.1 mM peptide (relative to peptide 1) [22]: 104; Vmax [22]: 278 U/mg; Km [23]: > 500 µM; V (0.1 mM): relative rate of phosphorylation at 0.1 mM peptide (relative to peptide 1) [23]: 9; Km [24]: 105 µM; V (0.1 mM): relative rate of phosphorylation at 0.1 mM peptide (relative to peptide 1) [24]: 37; Vmax [24]: 160 U/mg; Km [25]: > 500 µM; V (0.1 mM): relative rate of phosphorylation at 0.1 mM peptide (relative to peptide 1) [25]: 21; Km [26]: > 500 µM; V (0.1 mM): relative rate of phosphorylation at 0.1 mM peptide (relative to peptide 1) [26]: 4; Km [27]: > 0.5 mM; Km [28]: 8 µM; V (0.1 mM): relative rate of phosphorylation at 0.1 mM peptide (relative to peptide 1) [28]: 129; Vmax [28]: 385 U/mg; Km [29]: 5 µM; V (0.1 mM): relative rate of phosphorylation at 0.1 mM peptide (relative to peptide 1) [29]: 105; Vmax [29]: 260 U/mg; Km [30]: 0.03 mM; V (0.1 mM): relative rate of phosphorylation at 0.1 mM peptide (relative to peptide 1) [30]: 78; Vmax [30]: 240 U/mg and 243 U/mg; Km [31]: 25 µM; V (0.1 mM): relative rate of phosphorylation at 0.1 mM peptide (relative to peptide 1) [31]: 77; Vmax [31]: 233 U/mg; Km [32]: Km of 10 µM and Vmax of 230 U/mg; Vmax [32]: Km of 10 µM and Vmax of 230 U/mg; Km [33]: 0.025 mM; Vmax [33]: 230 U/mg

**Q.** With “MAPKAP kinase-1 purified from rabbit skeletal muscle” as the substance, how does the Km [1] read?
**A.** 2 µM

**Q.** What about the Vmax [1] of the same substance?
**A.** 790 U/mg

**Q.** What about the Km [6] of the same substance?
**A.** 0.02 mM

**Q.** And the Vmax [6]?
**A.** 1020 U/mg

**Q.** And the Km [29]?
**A.** 12 µM

**Q.** And the Vmax [29]?
**A.** 840 U/mg

**Q.** And the Km [30]?
**A.** > 0.5 mM

**Q.** And the Vmax [30]?
**A.** > 500 U/mg

**Q.** What about the Km [33] of the same substance?
**A.** > 0.5 mM
